Laboratory results from patent US20240181075A1 (EMERGENCE THERAPEUTICS, published 2024).

T1: human Nectin-4 with N-terminal Flag epitope tag, expressed on transfected MDA-MB231 cells (human, UniProt Q96NY8 32-510)
T1 construct: whole, on cells; also called PVRL4 cDNA in p3XFLR4.C1
T1 sequence (looked up): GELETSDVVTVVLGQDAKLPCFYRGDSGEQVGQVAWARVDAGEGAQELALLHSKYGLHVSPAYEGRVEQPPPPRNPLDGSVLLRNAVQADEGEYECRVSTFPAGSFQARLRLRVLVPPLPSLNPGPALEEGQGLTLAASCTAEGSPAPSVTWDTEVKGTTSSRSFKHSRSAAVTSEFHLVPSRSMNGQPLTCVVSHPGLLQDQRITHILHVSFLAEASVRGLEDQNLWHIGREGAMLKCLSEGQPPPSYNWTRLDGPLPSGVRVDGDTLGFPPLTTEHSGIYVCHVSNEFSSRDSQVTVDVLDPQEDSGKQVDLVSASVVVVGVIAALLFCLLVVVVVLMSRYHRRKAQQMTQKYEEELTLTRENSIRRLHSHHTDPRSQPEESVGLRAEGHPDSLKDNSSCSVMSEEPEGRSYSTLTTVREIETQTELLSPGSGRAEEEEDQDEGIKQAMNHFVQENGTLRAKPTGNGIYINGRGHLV

T2: Nectin-1 extracellular domain Fc fusion recombinant protein (Nec1-VCC) (UniProt Q15223 31-355, limits assumed)
T2 construct: extracellular domain; also called Nectin-1-VCC-Fc; not shown: Fc part
T2 sequence (looked up): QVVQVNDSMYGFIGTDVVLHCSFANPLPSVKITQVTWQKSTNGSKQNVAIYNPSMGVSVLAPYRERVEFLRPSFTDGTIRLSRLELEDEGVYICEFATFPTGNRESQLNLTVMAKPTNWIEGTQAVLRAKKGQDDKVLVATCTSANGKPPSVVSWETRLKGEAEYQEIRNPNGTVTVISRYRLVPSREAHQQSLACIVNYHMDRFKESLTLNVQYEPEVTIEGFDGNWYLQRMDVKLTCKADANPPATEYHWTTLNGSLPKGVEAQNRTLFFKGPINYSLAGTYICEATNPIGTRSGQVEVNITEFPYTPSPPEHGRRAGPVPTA

T3: human Nectin-4 on cells (CHO cells transfected with human Nectin-4 cDNA); SUM190 tumor cells; normal … (human, UniProt Q96NY8 32-510)
T3 construct: whole, on cells; The cell type that carried it is named under assay in each row; also called PVRL4; PRR4
T3 sequence (looked up): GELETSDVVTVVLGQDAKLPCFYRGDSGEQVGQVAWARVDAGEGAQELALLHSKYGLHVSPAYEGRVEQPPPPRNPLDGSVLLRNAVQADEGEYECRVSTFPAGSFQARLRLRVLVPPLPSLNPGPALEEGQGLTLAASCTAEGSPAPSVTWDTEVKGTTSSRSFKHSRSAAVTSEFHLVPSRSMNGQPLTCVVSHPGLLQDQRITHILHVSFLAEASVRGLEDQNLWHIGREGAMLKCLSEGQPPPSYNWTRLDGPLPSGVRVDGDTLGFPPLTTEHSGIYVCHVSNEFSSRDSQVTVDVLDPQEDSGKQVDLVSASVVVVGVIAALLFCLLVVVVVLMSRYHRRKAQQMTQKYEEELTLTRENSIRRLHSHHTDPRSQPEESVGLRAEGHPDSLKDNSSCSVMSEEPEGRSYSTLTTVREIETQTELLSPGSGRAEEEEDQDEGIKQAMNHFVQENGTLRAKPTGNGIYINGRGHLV

T4: Nectin-4 extracellular domain Fc fusion recombinant protein (Nec4-VCC) (human, UniProt Q96NY8 32-349)
T4 construct: extracellular domain; also called Nectin-4-VCC-Fc; not shown: Fc part
T4 sequence (looked up): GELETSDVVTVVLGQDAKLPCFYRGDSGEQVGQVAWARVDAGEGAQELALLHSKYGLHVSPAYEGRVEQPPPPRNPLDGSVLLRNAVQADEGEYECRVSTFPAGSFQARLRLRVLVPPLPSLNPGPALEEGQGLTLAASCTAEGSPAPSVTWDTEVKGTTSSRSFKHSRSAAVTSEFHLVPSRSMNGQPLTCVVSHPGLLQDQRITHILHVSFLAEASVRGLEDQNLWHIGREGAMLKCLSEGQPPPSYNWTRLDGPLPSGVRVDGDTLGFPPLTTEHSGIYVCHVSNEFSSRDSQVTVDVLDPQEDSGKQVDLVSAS

T5: Nectin-4 IgV-like domain Fc fusion recombinant protein (Nec4-V) (human, UniProt Q96NY8 32-146, limits assumed)
T5 construct: domain: IgV-like domain; also called Nectin-4-V-Fc; not shown: Fc part
T5 sequence (looked up): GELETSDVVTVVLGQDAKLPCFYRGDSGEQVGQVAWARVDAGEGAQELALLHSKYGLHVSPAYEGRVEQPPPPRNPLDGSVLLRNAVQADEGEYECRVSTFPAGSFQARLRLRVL


Assays:
[1] = target: T1, human Nectin-4 with N-terminal Flag …; assay: flow cytometry on MDA-MB231 cells transfected with N-terminal Flag-tagged Nectin-4, anti-human Fc PE detection
From the text: Detection by flow cytometry. [0431] […] Cells were then stained with phycoerythrin conjugate goat anti human Fc antibody. The normalized mean fluorescence intensity is shown. […] Mean fluorescence intensity is represented.

[2] = target: T2, Nectin-1 extracellular domain Fc fusion …; assay: ELISA, plate coated with Nec1-VCC Fc fusion protein
Description: (§1) Detection by ELISA. [0433]
(§2) One hundred μL of peroxidase substrate was added (One Step ABST, Pierce), and OD was red at 405 nm.

[3] = target: T3, human Nectin-4 on cells (CHO cells …); assay: flow cytometry on normal differentiated human keratinocytes (NHEK), compared with SUM190 tumor cells
[4] = target: T4, Nectin-4 extracellular domain Fc fusion …; assay: ELISA, plate coated with Nec4-VCC Fc fusion, peroxidase-conjugated antibody
Description: as §1, §2

[5] = target: T5, Nectin-4 IgV-like domain Fc fusion …; assay: ELISA, plate coated with Nec4-V Fc fusion, peroxidase-conjugated antibody
Description: as §1, §2

[6] = target: T3, human Nectin-4 on cells (CHO cells …); assay: flow cytometry on normal differentiated human keratinocytes (NHEK); reference antibody of the comparison
[7] = target: T4, Nectin-4 extracellular domain Fc fusion …; assay: statement in the legend of the competition ELISA on coated Nec4-VCC
Description: Competition assay was performed by ELISA. [0435] Ninety-six-wells plates were coated with 5 μg/mL of Nectin-4 extracellular domain Fc fusion recombinant protein (Nec4-VCC) overnight at 4° C.
as §2

Row | binding result [1] | binding result [2] | binding result [3] | binding result [4] | binding result [5] | binding result [6] | binding result [7] | Binder
1 | binds | no binding | binds | binds | binds | – | – | Ch-15A7.5 (chimeric anti-Nectin-4 monoclonal antibody 15A7.5) (antibody, V domains shown, also called Ch-15A7.5 mAb; Ch-15A7 mAb) VH: EVKLVESGGGLVQPGGSRKLSCAASGFTFSNYGMAWVRQAPGKGPEWVAFISNLAYGINYADTVTGRFTISRENAKNTLYLEMRSLRSEDTAMYYCARGARATGWFAYWGQGTLVTVSA VL: DIVMTQSQKFMSTSIGDRVSVTCKASQNVDTHVAWYQEKPGQSPKALIYSASYRYSGVPDRFTGSGSGTDFTLTISNVQSEDLADYFCQQYNSYPLTFGGGTKLEIK
2 | binds | – | – | – | – | binds | – | Ch-5A12.2 (chimeric anti-Nectin-4 monoclonal antibody 5A12.2) (antibody, V domains shown, also called Ch-5A12.2 mAb; 5A12.2 mAb) VH: QIQLQQSGAELVKPGASVTLSCKTSGFTFNSMYISWLKQKPGQSLEWIAWIYAGTGGTRFNQKFTGKVQLTVDTSSSTAYMQFSSLTTDDSAIYYCAIRSGFVPMDYWGQGTSVTVSS VL: SIVMTQTPKFLLVSAGDRVTITCKASQSVSNDVAWYQQKPGQSPKLLIYYASNRYTGVPDRFTGSGYGTDFTFTISTVQAEDLAVYFCQQDYSSPWTFGGGTKLEIK
3 | – | – | – | – | – | – | binds | HA22 (Enfortumab), human monoclonal anti-Nectin-4 antibody (antibody, V domains shown, also called Enfortumab (HA22); HA22 mAb) VH: EVQLVESGGGLVQPGGSLRLSCAASGFTFSSYNMNWVRQAPGKGLEWVSYISSSSSTIYYADSVKGRFTISRDNAKNSLSLQMNSLRDEDTAVYYCARAYYYGMDVWGQGTTVTVSS VL: DIQMTQSPSSVSASVGDRVTITCRASQGISGWLAWYQQKPGKAPKFLIYAASTLQSGVPSRFSGSGSGTDFTLTISSLQPEDFATYYCQQANSFPPTFGGGTKVEIK
